Measured values as given in patent US20200216536A1.
“And” between values parts separate entries of the source, which are not always exact repeats. Equal values may be shown once.

Columns and labels:
canine FcRn [1] = target: T1, canine FcRn (UniProtKB-E2ROL6 [FcRn] and UniProtKB-E2RN10 [canine beta-2-microglobulin]) (canine); assay: SPR Biacore 8K, pH 5.5, Fc captured on BSA via SASA tag, FcRn 200 nM
canine FcRn [2] = target: T1, canine FcRn; assay: as above; remark: listed apart in the source
canine FcRn [3] = target: T1, canine FcRn; assay: as above; remark: listed apart in the source
canine FcRn [4] = target: T1, canine FcRn; assay: as above; remark: listed apart in the source
canine FcRn [5] = target: T1, canine FcRn; assay: as above; remark: listed apart in the source
canine FcRn [6] = target: T1, canine FcRn; assay: as above; remark: listed apart in the source
canine FcRn [7] = target: T1, canine FcRn; assay: as above; remark: listed apart in the source
canine FcRn [8] = target: T1, canine FcRn; assay: as above; remark: listed apart in the source
canine FcRn [9] = target: T1, canine FcRn; assay: SPR Biacore 8K, pH 5.5, Fc captured on BSA via SASA tag, FcRn 100-800 nM
canine FcRn [10] = target: T1, canine FcRn; assay: SPR Biacore 8K, pH 5.5, Fc captured on BSA via SASA tag, FcRn 400 nM; average of the 12 wild-type runs

Kd (canine FcRn [1]): 8.99 µM and 3.11 µM
koff (canine FcRn [1]): 0.347 s⁻¹ and 0.354 s⁻¹
kon (canine FcRn [1]): 38700 M⁻¹ s⁻¹ and 114000 M⁻¹ s⁻¹
Kd (canine FcRn [2]): 1710 nM and 2660 nM
koff (canine FcRn [2]): 0.288 s⁻¹ and 0.326 s⁻¹
kon (canine FcRn [2]): 168000 M⁻¹ s⁻¹ and 123000 M⁻¹ s⁻¹
Kd (canine FcRn [3]): 2050 nM and 2990 nM
koff (canine FcRn [3]): 0.31 s⁻¹ and 0.315 s⁻¹
kon (canine FcRn [3]): 151000 M⁻¹ s⁻¹ and 105000 M⁻¹ s⁻¹
Kd (canine FcRn [4]): 884 nM and 862 nM
koff (canine FcRn [4]): 0.21 s⁻¹ and 0.218 s⁻¹
kon (canine FcRn [4]): 237000 M⁻¹ s⁻¹ and 253000 M⁻¹ s⁻¹
Kd (canine FcRn [5]): 639 nM and 692 nM
koff (canine FcRn [5]): 0.17 s⁻¹ and 0.171 s⁻¹
kon (canine FcRn [5]): 267000 M⁻¹ s⁻¹ and 247000 M⁻¹ s⁻¹
Kd (canine FcRn [6]): 502 nM and 784 nM
koff (canine FcRn [6]): 0.169 s⁻¹ and 0.207 s⁻¹
kon (canine FcRn [6]): 336000 M⁻¹ s⁻¹ and 264000 M⁻¹ s⁻¹
Kd (canine FcRn [7]): 1560 nM and 754 nM
koff (canine FcRn [7]): 0.179 s⁻¹ and 0.182 s⁻¹
kon (canine FcRn [7]): 115000 M⁻¹ s⁻¹ and 242000 M⁻¹ s⁻¹
Kd (canine FcRn [8]): 955 nM and 1310 nM
koff (canine FcRn [8]): 0.181 s⁻¹ and 0.209 s⁻¹
kon (canine FcRn [8]): 190000 M⁻¹ s⁻¹ and 159000 M⁻¹ s⁻¹
Kd (canine FcRn [9]): 3.15 µM
koff (canine FcRn [9]): 0.527 s⁻¹
kon (canine FcRn [9]): 168000 M⁻¹ s⁻¹
Kd (canine FcRn [10]): 566 nM
B1: wild-type canine IgG.B Fc (CH2 and CH3 domains) with SASA tag (Fc fusion, not shown: small tags and cut ends)
chain: APEMLGGPSVFIFPPKPKDTLLIARTPEVTCVVVDLDPEDPEVQISWFVDGKQMQTAKTQPREEQFNGTYRVVSVLPIGHQDWLKGKQFTCKVNNKALPSPIERTISKARGQAHQPSVYVLPPSREELSKNTVSLTCLIKDFFPPDIDVEWQSNGQQEPESKYRTTPPQLDEDGSYFLYSKLSVDKSRWQRGDTFICAVMHEALHNHYTQESLSHSPGK
